This note sets out measurements from article PMC3469418 (2012).

Like-named read-outs stand apart in the source and are kept apart here. Bounds are passed on as bounds.

Common to all, as to assay: SPR
Experiment [1] concerns the target RPL12 peptide dimethylated on lysine 3 (D. melanogaster, UniProt Q9W1B9, dimethyl-lysine at 3 (K3me2)).
The target in experiment [2] is T1, RPL12 unmodified peptide (D. melanogaster, UniProt Q9W1B9).
Experiment [3] concerns the target T2, RPL12 peptide trimethylated on lysine 3 (D. melanogaster, UniProt Q9W1B9, trimethyl-lysine at 3 (K3me3)).
Experiment [4] addresses T1, RPL12 unmodified peptide. The source holds these as a separate data set.
The target of experiment [5] is T2, RPL12 peptide trimethylated on lysine 3. The source holds these as a separate data set.

B1: GST-CortoCD (Corto chromodomain fused to GST) (domain or fragment)
chain: TASSNSNAAPAPSPQKDYSIPLHVDCSVEYELPNQPKPPAGQRVEPLLMIHPCYFRKMESQRRSPFVNNMHATARAV
On to B1, for which the Kd (as a rule, a measure of binding affinity in units of concentration) in experiment [1] worked out at 238 µM; with RPL12 unmodified peptide [2] it was 624 µM. The koff (commonly the rate constant with which the complex falls apart) in experiment [1] was found to be 0.00099 s⁻¹; with RPL12 unmodified peptide [2] it was 0.00076 s⁻¹; in experiment [3] it was 0.00082 s⁻¹.

B2: GST-HP1CD (HP1 chromodomain fused to GST) (domain or fragment)
chain: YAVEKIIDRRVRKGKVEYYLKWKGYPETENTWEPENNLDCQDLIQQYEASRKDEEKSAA
In the case of B2, the Kd in the experiment with RPL12 unmodified peptide [4] was over 1000 µM; in experiment [5], 292 µM.
